From patent US8492329B2, “Bioactive peptides and methods of using same” (Compugen Ltd., priority 2007, dated 2013)
No end group written: not given here.

Key:
LGR7 (RXFP1) [1] = biological target: T1, LGR7 (RXFP1) (Homo sapiens, UniProt Q9HBX9); test: Competition with Europium labelled H2 Relaxin binding to HEK-293T cells expressing LGR7; parameters: expressed in transfected cells; conditions: LGR7 HEK-293T; 0.01 nM-10 μM; FIG. 9
T1 sequence (Q9HBX9 1-757): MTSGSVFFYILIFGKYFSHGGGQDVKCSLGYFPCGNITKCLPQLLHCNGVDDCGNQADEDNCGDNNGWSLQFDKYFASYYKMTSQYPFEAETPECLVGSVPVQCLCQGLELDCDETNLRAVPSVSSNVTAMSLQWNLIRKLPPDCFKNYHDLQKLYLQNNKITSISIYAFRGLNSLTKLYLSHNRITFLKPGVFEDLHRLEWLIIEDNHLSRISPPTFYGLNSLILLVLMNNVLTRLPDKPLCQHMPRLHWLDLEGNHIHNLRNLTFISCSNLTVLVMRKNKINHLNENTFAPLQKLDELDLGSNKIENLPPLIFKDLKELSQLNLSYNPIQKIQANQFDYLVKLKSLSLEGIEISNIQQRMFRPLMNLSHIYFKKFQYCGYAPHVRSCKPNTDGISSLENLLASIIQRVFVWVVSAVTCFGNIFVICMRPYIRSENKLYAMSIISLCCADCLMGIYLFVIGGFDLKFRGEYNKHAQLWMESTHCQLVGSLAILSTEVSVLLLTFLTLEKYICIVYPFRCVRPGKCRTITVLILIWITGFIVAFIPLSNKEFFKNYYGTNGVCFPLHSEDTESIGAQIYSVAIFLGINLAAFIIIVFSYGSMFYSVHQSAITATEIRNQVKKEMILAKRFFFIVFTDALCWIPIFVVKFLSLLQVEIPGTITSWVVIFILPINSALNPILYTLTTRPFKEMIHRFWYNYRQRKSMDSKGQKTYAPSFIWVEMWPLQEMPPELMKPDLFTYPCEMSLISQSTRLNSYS
Description: The ability of Peptides P74C13V (SEQ ID NO: 10) and P59C13V (SEQ ID NO: 6) to compete with the binding of known ligands to LGR7 or LGR8 was tested by testing the ability of P74C13V (SEQ ID NO: 10) and P59C13V (SEQ ID NO: 6) to compete with the binding of Europium labelled H2 Relaxin or INSL3 (manufactured by the H. Florey institute) to stable HEK-293T cell lines expressing LGR7 or LGR8 respectively.
HEK-293T cell lines stabelly expressing LGR7 (RXFP1) were treated with Europium labelled H2 Relaxin (manufactured by the H. Florey institute) The cells were then treated with decimal increasing concentrations (0.01 nM, 0.1 nM, 1 nM, 10 nM, 100 nM, 1 μM, 10 μM) of un-labeled H2 Relaxin (as a positive control) and the tested peptides P59C13V (P59) (SEQ ID NO: 6), P59C13V-Amide (P59-Amide) (SEQ ID NO: 5), P59-S-Amide (P59S) (SEQ ID NO: 1) and P74C13V (P74) (SEQ ID NO: 10). The binding results are shown as a percentage of specific binding of the radioactive test H2 Relaxin (where 100% is the baseline radiation level).

LGR7 (RXFP1) [2] = biological target: T1, LGR7 (RXFP1); test: cAMP accumulation (Hit Hunter cAMP kit) in CHO-K1 cells transiently transfected with LGR7; type: cell-based; parameters: expressed in transfected cells; host or cells: CHO-K1 (transient); conditions: for cAMP inhibition (Gi) effect: 1 uM, LGR7 CHO-K1 cells pre-treated with 10 uM Forskolin, FIG. 1; for cAMP dose response with Forskolin / Gs (cAMP increase) dose response without Forskolin: LGR7; for cAMP dose response with Forskolin: 10 uM Forskolin, 1 nM to 10 uM, FIG. 4A; for Gs (cAMP increase) dose response without Forskolin: low concentrations 3-100 nM, FIG. 4B
Description: The ability of Peptides to affect cAMP concentration was examined in CHO-K1 cells transiently transfected with LGR7 (RXFP1) or LGR8 (RXFP2). The experiment measured cAMP concentration in response to the addition of the peptides.
LGR7 (RXFP1) or LGR8 (RXFP2) were transiently transfected into CHO-K1 cells as follows: Cells (12 million) were plated into T75 flasks on the day preceding transfection. Cells were transfected with a GPCR DNA and Gα16 using a lipid technique according to the manufacturer's recommendation. Cells were transfected for 5 hours, then re-plated into 96-well dishes (60,000 cells per well) and grown overnight. Transfected cells were plated into 24 wells of a 96-well plate. Cells were pre-treated with 0.5 mM IBMX (stimulation buffer) for 10 min at 37° C., then stimulated with either a positive control (Relaxin 2) or a candidate peptide (for Gs functional examination), followed by stimulation or a preincubation with 10 μM forskolin (for Gi functional examination). Following a 20 minutes stimulation by incubation with 1 μM of either positive control or the tested peptides, either with or without forskolin, intracellular cAMP was assayed using the Hit Hunter cAMP kit (DiscoveRx Corporation) according to the manufacturer's recommended protocol. Data was converted to nmol of cAMP by running a standard cAMP curve.
Relaxin was used as a positive control. cAMP level was elevated by pre-treatment with forskolin.
The transfected CHO-K1 cells were treated with 10 uM of Forskolin (Applied cell sciences (ACS)) for 10 minutes and then challenged with 1 uM of H2 Relaxin (ACS) (as a positive control), 1 uM of Peptide P59C13V (P59) (SEQ ID NO: 6), and Peptide P74C13V (P74) (SEQ ID NO: 10).
CHO-K1 cells transiently transfected with LGR7 (RXFP1) were treated with 10 uM of Forskolin for 10 minutes and then challenged with either H2 Relaxin (as a positive control), P59C13V (P59) (SEQ ID NO: 6) or P74C13V (P74) (SEQ ID NO: 10) at increasing concentrations, from 1 nm to 10 uM (FIG. 4A) and from 3 nM to 100 nM (FIG. 4B). cAMP concentrations were determined at each point, as described above with (FIG. 4A) or without (FIG. 4B) the presence of Forskolin.

| Substance | competition for binding of Europium-H2 Relaxin (LGR7 (RXFP1) [1]) | cAMP inhibition (Gi) effect (LGR7 (RXFP1) [2]) | cAMP dose response with Forskolin (LGR7 (RXFP1) [2]) | Gs (cAMP increase) dose response without Forskolin (LGR7 (RXFP1) [2]) |
| --- | --- | --- | --- | --- |
| GQKGQVGPPGAAVRRAYAAFSV [Peptide P59C13V] | no competition | clear cAMP inhibition (Gi) effect | bell-shaped curve | dose dependent increase in cAMP |
| AYAAFSV-Amide (AYAAFSV-NH2) [Peptide P59-S-Amide] | no competition | – | – | – |
| GQKGQVGPPGAAVRRAYAAFSV-Amide (GQKGQVGPPGAAVRRAYAAFSV-NH2) [P59C13V-Amide] | no competition | – | – | – |
| GQKGQVGPPGAAVRRAYAAFSVGRRAYAAFSV-OH [Peptide P74C13V] | no competition | clear cAMP inhibition (Gi) effect | no significant effect | – |
| H2 Relaxin: H2 Relaxin (ACS), positive control, known ligand of LGR7 (RXFP1) [reference compound] | – | affected only the LGR7 (RXFP1) receptor | dose dependent decrease (Gi) effect | dose dependent increase in cAMP |
